In US5906819:

Tests used:
[1] = target: bovine Rho-kinase (bovine)
[2] = target: bovine Rho-kinase (bovine); remark: listed apart in the source
[3] = target: bovine Rho-kinase (bovine); remark: listed apart in the source
[4] = target: intact myosin (chicken)
[5] = target: T1, myosin light chain (chicken) (UniProt P02612)
T1 sequence: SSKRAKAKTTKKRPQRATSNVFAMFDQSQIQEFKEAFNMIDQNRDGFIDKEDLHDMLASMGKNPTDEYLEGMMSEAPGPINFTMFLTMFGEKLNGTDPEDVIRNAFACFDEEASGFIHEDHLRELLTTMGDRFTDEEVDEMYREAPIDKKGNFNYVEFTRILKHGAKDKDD

myosin light chain kinase, sequence (P11799 935-1906 limits assumed): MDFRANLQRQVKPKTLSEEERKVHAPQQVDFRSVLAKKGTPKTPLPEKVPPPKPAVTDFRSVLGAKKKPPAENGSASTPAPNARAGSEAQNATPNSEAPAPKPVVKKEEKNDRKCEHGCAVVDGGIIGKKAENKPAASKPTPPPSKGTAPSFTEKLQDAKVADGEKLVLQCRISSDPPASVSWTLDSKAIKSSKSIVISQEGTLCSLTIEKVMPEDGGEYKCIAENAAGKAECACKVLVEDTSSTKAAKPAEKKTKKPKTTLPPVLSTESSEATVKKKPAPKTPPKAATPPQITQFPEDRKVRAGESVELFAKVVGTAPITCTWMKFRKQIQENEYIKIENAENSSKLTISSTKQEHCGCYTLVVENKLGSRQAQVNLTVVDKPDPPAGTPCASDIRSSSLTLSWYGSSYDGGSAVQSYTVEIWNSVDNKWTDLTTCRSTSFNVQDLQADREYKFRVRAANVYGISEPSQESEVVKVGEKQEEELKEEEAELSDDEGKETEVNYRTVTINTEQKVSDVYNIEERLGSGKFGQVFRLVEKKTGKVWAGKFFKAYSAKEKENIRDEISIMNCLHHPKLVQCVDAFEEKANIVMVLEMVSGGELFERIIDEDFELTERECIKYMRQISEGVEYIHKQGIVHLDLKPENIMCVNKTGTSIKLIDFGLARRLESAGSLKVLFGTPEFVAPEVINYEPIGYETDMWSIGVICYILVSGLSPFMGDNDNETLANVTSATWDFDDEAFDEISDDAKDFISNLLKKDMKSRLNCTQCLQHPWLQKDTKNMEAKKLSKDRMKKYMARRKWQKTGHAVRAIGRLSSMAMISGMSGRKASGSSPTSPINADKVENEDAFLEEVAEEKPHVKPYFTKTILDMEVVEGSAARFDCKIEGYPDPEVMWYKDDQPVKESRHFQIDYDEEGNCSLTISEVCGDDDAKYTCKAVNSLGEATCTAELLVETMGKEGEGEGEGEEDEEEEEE

**Q.** Which results are given for GTPγS·GST-RhoA (from UniProt P61586)?
**A.** phosphorylation of rat myosin-binding subunit by bovine Rho-kinase [1]: 15 times; phosphorylation of MBS-C by bovine Rho-kinase [2]: 5 times; autophosphorylation of bovine Rho-kinase [3]: 2 times

**Q.** With bovine Rho-kinase (enzyme) as the substance, how does the phosphorylation of the myosin light chain of intact myosin (mol of phosphate into 1 mol) [4] read?
**A.** 1

**Q.** And the apparent Km for myosin light chain, in the absence of GTPγS·GST-RhoA [5]?
**A.** 12.6 µM

**Q.** What about the apparent Km for myosin light chain, in the presence of GTPγS·GST-RhoA [5] of the same substance?
**A.** 2.6 µM

**Q.** With “myosin light chain kinase (from UniProt P11799-2) (enzyme)” as the substance, how does the apparent Km for myosin light chain [5] read?
**A.** 52.1 µM
